Measured values from PMC11544177 (Acta Pharmaceutica Sinica. B, 2024).

Key:
[1] = molecular target: mitochondrial acetyl-CoA acetyltransferase 1 (ACAT1), purified recombinant human, His-tagged (human) (UniProt P24752); test: negative-stain electron microscopy
[2] = molecular target: mitochondrial acetyl-CoA acetyltransferase 1 (ACAT1), purified recombinant human, His-tagged (human) (UniProt P24752); test: native gel or EMSA
[3] = molecular target: mitochondrial acetyl-CoA acetyltransferase 1 (ACAT1), purified recombinant human, His-tagged (human) (UniProt P24752); test: cryo-EM structure
[4] = molecular target: T1, mitochondrial acetyl-CoA acetyltransferase 1 (ACAT1) (Homo sapiens, UniProt P24752); test: SPR; type: binding
T1 sequence (P24752 34-427): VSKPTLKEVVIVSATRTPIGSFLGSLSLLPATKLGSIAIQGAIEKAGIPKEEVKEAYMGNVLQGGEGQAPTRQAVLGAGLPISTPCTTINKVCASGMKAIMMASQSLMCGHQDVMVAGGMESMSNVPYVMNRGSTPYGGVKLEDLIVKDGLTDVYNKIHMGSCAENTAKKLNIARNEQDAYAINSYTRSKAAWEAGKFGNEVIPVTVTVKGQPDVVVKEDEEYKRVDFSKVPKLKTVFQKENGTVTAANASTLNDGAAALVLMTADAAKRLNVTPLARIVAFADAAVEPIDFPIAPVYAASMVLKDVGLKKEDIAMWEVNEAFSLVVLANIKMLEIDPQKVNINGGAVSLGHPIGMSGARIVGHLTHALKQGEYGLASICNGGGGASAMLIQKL

native gel or EMSA = molecular target: the molecule itself; test: native gel or EMSA

## mitochondrial acetyl-CoA acetyltransferase 1 (ACAT1), purified recombinant human, His-tagged (from UniProt P24752 34-427) (enzyme)
[1]
  stoichiometry N: 4
[2]
  stoichiometry N: 4
[3]
  stoichiometry N: 4

## O=C(/C=C/c1ccc(O)c(O)c1)O[C@@H]1C[C@](O)(C(=O)O)C[C@@H](O)[C@H]1O [CGA, Chlorogenic acid]
[4]
  Kd: ~2580 nM

B1: ACAT1, endogenous in A375 human melanoma cells (enzyme, human (endogenous in A375), UniProt P24752 34-427, looked up)
chain: VSKPTLKEVVIVSATRTPIGSFLGSLSLLPATKLGSIAIQGAIEKAGIPKEEVKEAYMGNVLQGGEGQAPTRQAVLGAGLPISTPCTTINKVCASGMKAIMMASQSLMCGHQDVMVAGGMESMSNVPYVMNRGSTPYGGVKLEDLIVKDGLTDVYNKIHMGSCAENTAKKLNIARNEQDAYAINSYTRSKAAWEAGKFGNEVIPVTVTVKGQPDVVVKEDEEYKRVDFSKVPKLKTVFQKENGTVTAANASTLNDGAAALVLMTADAAKRLNVTPLARIVAFADAAVEPIDFPIAPVYAASMVLKDVGLKKEDIAMWEVNEAFSLVVLANIKMLEIDPQKVNINGGAVSLGHPIGMSGARIVGHLTHALKQGEYGLASICNGGGGASAMLIQKL
Native gel or EMSA
  stoichiometry N: 4
